Laboratory results taken from patent US20160208003A1 (AFFITECH RESEARCH, published 2016).

T1: human CC chemokine receptor 4 (CCR4) (human, UniProt P51679 1-360)
T1 construct: whole, on cells; Always presented on cells; also called CD194; human CCR4
T1 sequence (looked up): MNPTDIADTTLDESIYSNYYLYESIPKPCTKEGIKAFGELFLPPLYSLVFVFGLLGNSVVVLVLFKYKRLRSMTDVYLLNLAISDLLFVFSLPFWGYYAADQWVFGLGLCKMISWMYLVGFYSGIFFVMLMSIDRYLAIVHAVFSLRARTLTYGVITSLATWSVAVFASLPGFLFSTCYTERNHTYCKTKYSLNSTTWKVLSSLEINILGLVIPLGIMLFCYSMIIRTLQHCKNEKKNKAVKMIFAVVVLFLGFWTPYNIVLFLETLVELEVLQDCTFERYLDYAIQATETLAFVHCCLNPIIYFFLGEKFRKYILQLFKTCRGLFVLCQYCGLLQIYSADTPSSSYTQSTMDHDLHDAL


Experiments:
[1] = biological target: T1, human CC chemokine receptor 4 (CCR4); assay: flow cytometry competition on CCRF-CEM cells; IgG titrated, competitor biotinylated MDC (ca. 10 or 20 nM); second of three IC50 values on CCRF-CEM cells; inhibition of biotinylated MDC
Experimental: (§1) The competition binding assays were performed with biotinylated MDC or biotinylated TARC on DT-40-CCR4+ and CCRF-CEM cells. DT40 and CCRF-CEM cells were cultured as described in Example 2. TARC and MDC were biotinylated using standard procedures. The biotinylation process causes some losses, so the concentrations of biotinylated MDC and TARC recited herein are approximate.
(§2) The cells were harvested from culture flasks, washed 2 times with PBS (400×g, 5 min, 4° C.) and resuspended in PBS containing 0.2% BSA and 0.09% NaN3. 1×10^5 cells per well were aliquoted into V-shaped 96-well plates (Greiner Bio-One, Frikenhausen, Germany). Cells were centrifuged (400×g, 5 min, 4° C.) and resuspended in 50 μl IgG, single chain or unlabeled ligand (1:10 dilution series starting on 100/500/26, 4 μg/ml) mixed with a fixed concentration of biotinylated ligand (10 or 20 nM, see legend to FIG. 24). The cells were incubated for 2 hours at 4° C. and mixed with a pipette every 45 min. The cells were washed three times with 150 μl PBS with 0.2% BSA and 0.09% NaN3 and stained with 3 μg/ml streptavidin PE (BD Biosciences) for 45 minutes at 4° C. […] Apparent binding affinities (KD) were calculated according to the following equation derived from previously described methods (Kipriyanov et al, 1997b; Schodin & Kranz, 1993): […]

[2] = biological target: T1, human CC chemokine receptor 4 (CCR4); assay: flow cytometry competition on DT-40-CCR4+ cells; IgG titrated, competitor biotinylated MDC (ca. 10 nM)
Experimental: as §1, §2

[3] = biological target: T1, human CC chemokine receptor 4 (CCR4); assay: flow cytometry, IgG titration on CCRF-CEM cells (natural CCR4+), triplicates, RPE goat anti-human IgG, Median (YLW-HLog)
Source text: As a positive control, in-house cloned and expressed KM3060var IgG which is specific for an epitope present in positions 2-29 in N-terminal part of human CCR4 (EP1270595) was used. An anti-GFP antibody (raised against the green fluorescent protein) or the anti-VZV antibody (raised against Varicella zoster virus) were used as negative controls (anti-GFP both as scFv and IgG, while anti-VZV only as scFv).
(§3) For the flow cytometry experiments, the cells were harvested from the culture flasks, washed 2 times with PBS, re-suspended in PBS with 0.2% BSA and 0.09% NaN₃ and finally aliquoted 1×10⁵ cells per well into V-shaped 96-well plates (Greiner Bio-One, Frickenhausen, Germany). Cells were centrifuged at 400×g for 5 min and then incubated at 4° C. for 45 min with different antibody dilutions.
(§4) After washing with PBS with 0.2% BSA and 0.09% NaN₃, the cells were stained with 10 μg/ml of RPE-conjugated goat anti-human IgG (AbDSerotec, Düsseldorf, Germany) for 30 minutes at 4° C. The stained cells were washed, re-suspended in 200 μl PBS with 0.2% BSA and 0.09% NaN₃ and transferred to a U-shaped 96-well plate (Corning, Schiphol-Rijk, The Netherlands) for acquisition on EasyCyte flow cytometer (Guava Technologies, Hayward, Calif., USA).

[4] = biological target: T1, human CC chemokine receptor 4 (CCR4); assay: cell-based or functional assay
[5] = biological target: T1, human CC chemokine receptor 4 (CCR4); assay: calculated from the IC50 (KD=IC50/(1+[bio-IgG 9E]/KD 9E)); DT-40-CCR4+ cells, competitor 3.3 nM biotinylated IgG 9E
Experimental: DT40 and CCRF-CEM cells were cultivated as described in Example 2. The cells were harvested from culture flasks, washed 2 times with PBS (400×g, 5 min, 4° C.) and resuspended in PBS containing 0.2% BSA and 0.09% NaN3. 1×10^5 cells per well were aliquoted into V-shaped 96-well plates (Griner Bio-One, Frikenhausen, Germany). Cells were centrifuged (400×g, 5 min, 4° C.) and resuspended in 50 μl IgG 9E10J or KM3060var (dilution series starting at 5 μg/ml) mixed with biotinylated competitor antibody 9E (0.1 or 0.5 μg/ml). The cells were incubated for 2 hours at 4° C., mixing with a pipette every 45 min. The cells were washed three times with 150 μl PBS with 0.2% BSA and 0.09% NaN3 and stained with 3 μg/ml streptavidin PE (BD Biosciences) for 45 minutes at 4° C. Cells were washed, resuspended in 200 μl PBS with 0.2% BSA and 0.09% NaN3, and transferred to a U-shaped 96 well Costar (Corning, Schiphol-Rijik, The Netherlands) plate for flow cytometry using an FACS Canto II flow cytometer (BD Biosciences, Heidelberg, Germany).

[6] = biological target: T1, human CC chemokine receptor 4 (CCR4); assay: flow cytometry, IgG titration on CCR4+ DT40 cells (2); one site-specific binding fit (Prism)
Experimental: The IgG forms of antibodies 17G, 9E and KM3060var using various CCR4⁺ cell types were used (see Example 2).
as §3, §4

Row | Binder | IC50 [1] | IC50 [2] | EC50 (read off the curve) [3] | ADCC of CCRF-CEM cells with human PBMCs, EC50 [4] | Ca++ flux in CCRF-CEM cells: signal response to MDC stimulation (% of MDC in the absence of IgGs), IgG 10 µg/mL [4] | Ca++ flux in CCRF-CEM cells: signal response to TARC stimulation (% of TARC alone), IgG 10 µg/mL [4] | Kd [5] | Kd [6]
1 | 9E10J IgG (full length human IgG1, lambda) (antibody, V domains shown, also called IgG 9E10J; unmodified 9E10J) VH: QVQLVQSGAEVKKPGSSVKVSCKASGGTFSSYAISWVRQAPGQGLEWMGGIIPIFGTANYAQKFQGRVTMTRDTSTSTVYMELSSLRSEDTAVYYCARRGGSYFDYWGQGTLVTVSS VL: SYVLTQPPSASGTPGQSVTISCSGSTSNIGSHYVFWYQQLPGTAPRLLIYRNHQRPSGVPDRLSGSKSGTSASLAISGLRSEDEADYYCAVWDDTLSGWVFGGGTKLTVLG | 6.28 nM | 0.76 nM | – | – | – | – | – | –
2 | 9E IgG (full length human IgG1, lambda) (antibody, V domains shown, also called IgG 9E; IgG1 9E) VH: QVQLVQSGAEVKKPGSSVKVSCKASGGTFSNYAISWVRQAPGQGLEWMGGIIPIFGTANYAQKFQGRVTITADESTSTAYMELSSLRSEDTAVYYCARRGGSYFDYWGQGTLVTVSS VL: SYVLTQPPSASGTPGQSVTISCSGSTSNIGSHYVFWYQQLPGTAPRLLIYRNHQRPSGVPDRLSGSKSGTSASLAISGLRSEDEADYYCAVWDDTLSGWVFGGGTKLTVLG | – | – | ~0.4 nM | 0.046 µg/mL | 64% | 3% | 2.1 nM | 0.17 nM
